Assay results: patent publication US20210079054A1 (published 2021)

Assays:
[1] = target: recombinant canine IL-31 protein with C-terminal 6-His tag, secreted from Expi293 cells (canine); assay: cell-based or functional assay
[2] = target: T1, recombinant human IL-31 protein (UniProt Q6EBC2 24-164); assay: inhibition of IL-31/IL-31Rα interaction (ELISA); polyclonal IgG
T1 chain: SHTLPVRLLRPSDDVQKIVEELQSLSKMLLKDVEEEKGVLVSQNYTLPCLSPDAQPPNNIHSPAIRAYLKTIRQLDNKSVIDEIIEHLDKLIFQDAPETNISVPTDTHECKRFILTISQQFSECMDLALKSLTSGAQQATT

Chain of recombinant canine IL-31 protein with C-terminal 6-His tag, secreted from Expi293 cells (canine) (chain, as listed by the source, form in doubt): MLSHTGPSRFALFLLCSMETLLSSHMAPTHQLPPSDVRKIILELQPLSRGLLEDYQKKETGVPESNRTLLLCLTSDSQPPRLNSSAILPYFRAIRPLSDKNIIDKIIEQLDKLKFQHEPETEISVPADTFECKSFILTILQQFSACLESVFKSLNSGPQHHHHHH

B1: Cytopoint (anti-IL-31 mAb), monoclonal antibody to canine IL-31 (antibody, INN chains, looked up, V domains shown)
VH: EVQLVESGGDLVKPGGSLRLSCVASGFTFSNYGMSWVRQAPGKGLQWVATISYGGSYTYYPDNIKGRFTISRDNAKNTLYLQMNSLRAEDTAMYYCVRGYGYDTMDYWGQGTLVTVSS
VL: EIVMTQSPASLSLSQEEKVTITCKASQSVSFAGTGLMHWYQQKPGQAPKLLIYRASNLEAGVPSRFSGSGSGTDFSFTISSLEPEDVAVYYCQQSREYPWTFGQGTKLEIK
IC50 of signaling inhibition (canine IL-31 induced pSTAT in DH82 monocytes) [1]: 3.21 µg/mL | inhibition of IL-31-induced pSTAT3 signaling phosphorylation [1]: 50 to 75%

B2: SEQ ID NO: 87 (protein)
chain: ISITEIKGVIVHRIETILFKKKKLDNKSVIDEIIEHLDKLIFQDAPETNISVPTDTHECKRFILTISQQFS
IC50 [2]: 0.277 µg/mL

B3: SEQ ID NO: 99 (protein)
chain: ISITEIKGVIVHRIETILFKKKKAIRAYLKTIRQLDNKSVIDEIIEHLDKLIFQDAPETNISVPTDTHECKRFILTISQQFSESMDL
IC50 [2]: 1.23 µg/mL
